Results published in publication PMC4028238.

tested on: Influenza A virus hemagglutinin (whole virus as assayed) (Influenza A virus H3N2 A/Texas/1977 (A/Texas/1/77)); assay: competition ELISA; conditions: 5' PEG200, PBS, room temperature, […] (0.5-500 nM) […] (5 nM)

| Sequence | relative binding affinity (IC50 ratio vs BV02) (IC50(BV02)/IC50) |
| --- | --- |
| ATTAACCCTCACTAAAGGGCTGAGTCTCAAAACCGCAATACACTGGTTGTATGGTCGAATAAGTTAA [BV32] | 1.33 |

same assay, conditions: * marks (phosphorothioate) after nt 1,2,3, 3' inverted dT, PBS, room temperature, […] (0.5-500 nM) […] (5 nM)

| Sequence | relative binding affinity (IC50 ratio vs BV02) (IC50(BV02)/IC50) |
| --- | --- |
| ATTAACCCTCACTAAAGGGCTGAGTCTCAAAACCGCAATACACTGGTTGTATGGTCGAATAAGTTAA [BV29] | 6.7 |

same assay, conditions: * marks (phosphorothioate) after nt 1,2,3 and the last 3 linkages, PBS, room temperature, […] (0.5-500 nM) […] (5 nM)

| Sequence | relative binding affinity (IC50 ratio vs BV02) (IC50(BV02)/IC50) |
| --- | --- |
| ATTAACCCTCACTAAAGGGCTGAGTCTCAAAACCGCAATACACTGGTTGTATGGTCGAATAAGTTAA [BV28] | 1.36 |

same assay, conditions: * marks (phosphorothioate): A*T*T*AACC*CTCACTAAAGGG*CTGAGTC*TCAAAACCG*CAATACACTG*GTTGTATG*GTCGAATAAGT*T*A*A, PBS, room temperature, […] (0.5-500 nM) […] (5 nM)

| Sequence | relative binding affinity (IC50 ratio vs BV02) (IC50(BV02)/IC50) |
| --- | --- |
| ATTAACCCTCACTAAAGGGCTGAGTCTCAAAACCGCAATACACTGGTTGTATGGTCGAATAAGTTAA [BV31] | 7.51 |

same assay, conditions: PBS, room temperature, […] (0.5-500 nM) […] (5 nM)

| Sequence | relative binding affinity (IC50 ratio vs BV02) (IC50(BV02)/IC50) | IC50 |
| --- | --- | --- |
| AAATAAGCCTGACTTAACGGGTGACTCTCAAAACCGCAATACACTCAGCCCTTTAGTGAGGGTTAATT [BV19k] | 0.932 |  |
| AACCCTCACTCCGACTCACTCAAAACCGCAATACACTCAGCCAGTGAGGGTT [BV19f] | 0.131 |  |
| AACCCTCACTCTCAAAACCGCAATACAGTGAGGGTT [BV19h] | 0.016 |  |
| AACGCTCACTAAACCCCCCCCCACCCCCCCCCACCCCCCCCCAAAAGTGAGCGTT [BV45a] | 12.6 |  |
| AACGCTCACTAACCCCCCCCCCACCCCCCCCCCACCCCCCCCCCAAGTGAGCGTT [BV45] | 14.2 |  |
| AACGCTCACTACCCCCCCCCCAACCCCCCCCCCAACCCCCCCCCCAGTGAGCGTT [BV45b] | 15.1 |  |
| AACGCTCACTCCCAAGAAGAAGAACCCCCCCCCCCCCCCCAGTGAGCGTT [BV43b] | 8.01 |  |
| AACGCTCACTCCCCCAAGAACCCCCCCCCCATGCACCCCCCCCCCAGTGAGCGTT [BV45e] | 11.4 |  |
| AACGCTCACTCCCCCAAGAACCCCCCCCCCCCTCCCCCCCCCCCCAGTGAGCGTT [BV45c] | 11.7 |  |
| AACGCTCACTCCCCCAAGAACCCCCCCCCCCTGACCCCCCCCCCCAGTGAGCGTT [BV45d] | 10.7 |  |
| AACGCTCACTCCCCCACCCCCCCACCCCCCCACCCCCCCACCCCCAGTGAGCGTT [BV35m] | 6.54 |  |
| AACGCTCACTCCCCCCCCACCCCCCCCACCCCCCCCACCCCCCCCAGTGAGCGTT [BV35n] | 7.23 |  |
| AACGCTCACTCCCCCCCCCCCACCCCCCCCCCCACCCCCCCCCCCAGTGAGCGTT [BV35o] | 9.92 |  |
| AACGCTCACTCCCCCCCCCCCCCCAAGAAGAACCCCCCCCCCCCCAGTGAGCGTT [BV42b] | 14.9 |  |
| AACGCTCACTCCCCCCCCCCCCCCCAAGAACCCCCCCCCCCCCCCAGTGAGCGTT [BV35s] | 7.45 |  |
| AACGCTCACTCCCCCCCCCCCCCCCCCACCCCCCCCCCCCCCCCCAGTGAGCGTT [BV35p] | 9.88 |  |
| AACGCTCACTCCCCCCCCCCCCCCCCCCCAGTGAGCGTT [BV35g] | 0.639 |  |
| AATTAACCCTCACTAAAGCCGACTCACTCAAAACCGCAATACACTCAGCCCTTTAGTGAGGGTTAATT [BV19b] | 1.26 |  |
| AATTAACCCTCACTAAAGGGCTCTCACTCAAAACCGCAATACACTCAGCCCTTTAGTGAGGGTTAATT [BV19a] | 0.574 |  |
| AATTAACCCTCACTAAAGGGCTGAGTCTCAAAACCGCAATACACTCAGCCCTTTAGTGAGGGTTAATT [BV19] | 1.34 |  |

| Sequence | relative binding affinity (IC50 ratio vs BV02) (IC50(BV02)/IC50) | IC50 |
| --- | --- | --- |
| AATTAACCCTCACTAAAGGGCTGAGTCTCAAAACCGCAATACACTGGTTGTACAACCAGTGTATTGCG [BV14] | 1.33 |  |
| AATTAACCCTCACTAAAGGGCTGAGTCTCAAAACCGCAATACACTGGTTGTATGGTCGAATAAGTTAA [BV02] | 1 | 55 nM |
| AATTAACCCTCACTAAAGGGCTGAGTCTCAAAACCGCAATACACTGGTTGTATGTTAATTGGGAGTGA [BV18] | 7.26 |  |
| AATTAACCCTCACTAAAGGGCTGAGTCTCAAAACGTTTTGAGACTCAGCCCTTTAGTGAGGGTTAATT [BV11] | 0.124 |  |
| AATTAACCCTCACTAAAGGGCTGATGCGGAATAAGTTAAAACCGCAGGTATACACTGGTTGTATCGAA [BV02a] | 0.946 |  |
| AATTAACCCTCCTAAAGGGTCTGAGTCTCAAAACCGCAATACACTCAGCCCTTTAGTGAGGGTTAATT [BV19l] | 0.004 |  |
| AATTAACCCTGACTAAAGGGGTGAGTCTCAAAACCGCAATACACTCAGCCCTTTAGTGAGGGTTAATT [BV19i] | 0.071 |  |
| AATTAACGCTCACTAAAGCCCCACCCACCCACCCACCCACCCACCCACCCCTTTAGTGAGCGTTAATT [BV36b] | 0.611 |  |
| AATTAAGCCTGACTTAAGGGGTGAGTCTCAAAACCGCAATACACTCAGCCCTTTAGTGAGGGTTAATT [BV19j] | 0.071 |  |
| AGATAAATGTCCGGGTTCGCTTCACTGATCAAACATAGACAGGTATAATTACTGCCTGAAGAAAATCC [S2] | 1 |  |
| CACCACCACCACCACCACCACCACCACCAC [BV24b] | 0.05 |  |
| CCCCCCCCCCCCCCCCCGCGCTGAGTCCCCCCCCCCCCCCCCCCCACTCAGCGCG [BV35c] | 1.16 |  |
| CCCCCCCCCGCGCTGAGTCCCCCCCCCCCCCCCCCCCACTCAGCGCGCCCCCCCC [BV35b] | 0.938 |  |
| CTCACTAAAGCGCTGAGTCCCCCCCCCCCCCCCCCCCACTCAGCGCTTTAGTGAG [BV35] | 1.01 |  |
| CTCACTAAAGGGCTGAGTCAAACCGCAATACACTGGTTGTATGGTCGAATAAGTT [BV27] | 0.116 |  |
| CTCACTAAAGGGCTGAGTCAAACCGCAATACACTGGTTGTATGGTCGGTTAAGTT [BV27c] | 0.771 |  |
| CTCACTAAAGGGCTGAGTCTCAAAACCGCAATACACTCAGCCCTTTAGTGAG [BV19g] | 0.132 |  |
| CTCCTCCTCCTCCTCCTCCTCCTCCTCCTC [BV24a] | 0.08 |  |
| GAAATAACCTCTGATAAAAAATTTCTCCATAGCGAAGTAAGTCCATAAGGAATGCCGATTCGGCTTGC [S1] | 1.1 |  |
| GCTGAGTCTCAAAACCGCAATACACTGGTT [BV26] | 0.792 |  |

| Sequence | relative binding affinity (IC50 ratio vs BV02) (IC50(BV02)/IC50) | IC50 |
| --- | --- | --- |
| GGCTCACTAAAGGGCTGAGTCTCAAAACCGCAATACACTCAGCCCTTTAGTGAGGGTTAATTTTAAAGG [BV19c] | 0.086 |  |
| GGCTGAGTCAAACCGCCTAACACTGGTACAATGGCGGTTAAGTT [BV27m] | 0.012 |  |
| GGTAGTTATAGTATATGGAAGGGGCCCCCCCCCCCCCCCCGTGTCGTATGG [C7C] | 15.5 |  |
| GGTAGTTATAGTATATGGAAGGGGGTGTCGTATGG [C7-35M] | 0.549 |  |
| GTAAATACCTCTGAAATAATATCTCCATGACAGAGTAAGTCCATGAGAACTGACGATGCAAGTCTGTC [S3] | 0.7 |  |
| GTCACTAAAGGGCTGAGTCAAACCGCAATACACTGGTTGTATGGTCGGTTAAGTT [BV27f] | 0.75 |  |
| GTCACTAAAGGGCTGAGTCAAACCGCCATACACTGGTTGTATGGCGGTTAAGTT [BV27j] | 0.089 |  |
| GTTTTGAGACTCAGCCCGGGCTGAGTCTCAAAACCGCAATACACTGGTTGTACAACCAGTGTATTGCG [BV13] | 0.084 |  |
| TCATTCTCAGTAAAGGGCTGAGAATTCAAACCGCAATACACTGGTAAAAAGTGCGGTTAAG [BV27p] | 0.133 |  |
| TCATTCTCAGTAAAGGGCTGAGTCAAACCGCAATACACTGGTAAAAAGTGCGGTTAGCGAG [BV27o] | 0.116 |  |
| TCCTCAGCAAAATAGCGGGGCTGAGTCAAACCGCAATACACTGGTAAAAAGTGCGGTTAAG [BV37b] | 1 |  |
| TCCTCAGCAAAATAGCGGGGCTGAGTCTCAAACCGCAATACACTGGTAAAAAGTGCGGTTA [BV37c] | 7.56 |  |
| TCCTCAGTAAAATAGCGGGGCTGAGTCAAACCGCAATACACTGGTAAAAAGTGCGGTTAAG [BV27n] | 0.151 |  |
| TCCTCAGTAAAGGGCTGAGAAACCGCAATACACTGGTAAAAAGTGCGGTTAAGTT [BV27g] | 0.093 |  |
| TCCTCAGTAAAGGGCTGAGTCAAAACCGCAATACACTGGTAAAAAGTGCGGTTAG [BV27i] | 0.065 |  |
| TCCTCAGTAAAGGGCTGAGTCAAACCGCAATACACTGGTAAAAAGTGCGGTTAAG [BV27h] | 0.092 |  |
| TCTCAGCCCCCGCTGAGTCAAAGCGCACCCCCCCCCCCCCCCCCCCTGCGCTTAA [BV37f] | 0.495 |  |
| TCTCAGCCCCCGCTGAGTCAAAGCGCACCCCCCCCCCCCCCCCTGCGCTTAA [BV37e] | 0.995 |  |
| TTCCTCAGCAAAATAGCGGGGCTGAGCAACCGCAATACACTGGTAAAAAGTGCGGTTAAGA [BV37a] | 0.874 |  |
